B1: RPL13A 5'UTR delTOP (ssRNA)
RNA: AAGCGGCUGCCGAAG
B2: RPS18 5'UTR (ssRNA)
RNA: CUCUCUUCCACAGGAGGCCUACACGCCGCCGCUUGUGCUGCAGCC
B3: RPL13A 5'UTR (ssRNA)
RNA: CCUUUUCCAAGCGGCUGCCGAAG
B4: RPS6 3'UTR (ssRNA)
RNA: AAGAUUUUUUGAGUAACAAAU
B5: RPS6 5'UTR (ssRNA)
RNA: CCUCUUUUCCGUGGCGCCUCGGAGGCGUUCAGCUGCUUCAAG
B6: RPS6 5'UTR delTOP (ssRNA)
RNA: GUGGCGCCUCGGAGGCGUUCAGCUGCUUCAAG
B7: PABPC1 42-mer (ssRNA)
RNA: CCUUCUCCCCGGCGGUUAGUGCUGAGAGUGCGGAGUGUGUG
B8: poly(A) 25-mer (ssRNA)
RNA: AAAAAAAAAAAAAAAAAAAAAAAAA
B9: poly(G) 19-mer (ssRNA)
RNA: GGGGGGGGGGGGGGGGGGG

The first data set has as its target T1, LARP1 La-Module (Homo sapiens, UniProt Q6PKG0-3 310-540). Kind of data set: EMSA. (In general: Mobility shift assays separate free from complexed probe on a gel.)
For B1, the binding result is given as “no binding”. With B2, the binding result is “no binding”. As for B3, the binding result is “binds”. For B4, the binding result is recorded as “no binding”. B5: the binding result is “binds”. As for B6, the binding result is “no binding”.

Consider B7, for which the binding result is “no binding”.

In a further data set the target is T1, LARP1 La-Module. Kind of data set: EMSA. This is another data set of the same source.
By Kd is commonly meant the free concentration of one partner at which half of the binding sites on the other are occupied at equilibrium, for simple one-to-one binding. With B8, the dissociation constant (Kd) amounted to 40 ± 1 nM.

In a further data set the target is T1, LARP1 La-Module. Kind of data set: competition.
On to B9, for which the binding result is on record as “binds”.

Values taken from article PMC7927982.
